This note sets out measurements from the DeepSol protein solubility set.

A short description of the data set: soluble on expression in E. coli; label from the status in PepcDB or PDB records.
For the sequence “RTVTLTRERIRLEDRAVKMSVKTVGKEKVGVLDIPGFYVGLTDDVKVQLQKLEKQNVSSVIIDLRSNGGGALTEAVSLSGLFIPSGPIVQVRDNNGKVREDSDTDGQVFYKGPLVVLVDRFSASASEIFAAAMQDYGRALVVGEPTFGKGTVQQYRSLNRIYDQMLRPEWPALGSVQYTIQKFYRVNGGSTQRKGVTPDIIMPTGNEETETGEKFEDNALPWDSIDAATYVKSGDLTAFEPELLKEHNARIAKDPEFQNIMKDIARFNAMKDKRNIVSLNYAVREKENNEDDATRLARLNERFKREGKPELKKLDDLPKDYQEPDPYLDETVNIALDLAKLEKARPAEQPA”, the “soluble on expression in E. coli” value is given as “not soluble”. The result for “RVLQELHESEAQNRALLNAIPDMMLHVCREGTILDFRAGNGCAYAAFGGNLRGRTIADLLPPGAAAQFMAQVGHALATGTMMVCEYELEGPGGLNTHEARIVANGTGTVLAIVRDVT” reads “not soluble”; that for “RVQLLESGAELMKPGASVQISCKATGYTFSEYWIEWVKERPGHGLEWIGEILPGSGRTNYREKFKGKATFTADTSSNTAYMQLSSLTSEDSAVYYCTRGYSSMDYWGQGTSVTVSAAKTTPPSVYPLAPGCGDTTGSSVTLGCLVKGYFPESVTVTWNSGSLSSSVHTFPALLQSGLYTMSSSVTVPSSTWPSQTVTCSVAHPASSTTVDKKLEPSGPI”, “soluble”.

As for “RVVTQNEIDRTIPVGAIMMWAADSLPSDAWRFCHGGTVSASDCPLYASRIGTRYGGSSSNPGLPDMRGLFVRGSGRGSHLTNPNVNGNDQFGKPRLGVGCTGGYVGEVQKQQMSYHKHAGGFGEYDDSGAFGNTRRSNFVGTRKGLDWDNRSYFTNDGYEIDPASQRNSRYTLNRPELIGNETRPWNISLNYIIKVKE”, the “soluble on expression in E. coli” value is on record as “soluble”. The result for “SAAGVPCALVTSCSSVFSGDQLVQHILGTEDLIVEVTSNDAVRFYPWTIDNKYYSADINLCVVPNKFLVTAEIAESVQAFVVYFDSTQKSGLDSVSSWLPLAKAWLPEVMILVCDRVSEDGINRQKAQEWCIKHGFELVELSPEELPEEDDDFPESTGVKRIVQALNANVWSNVVMKNDRNQGFSLLNSLTGTNHSIGSADPCHPEQPHLPAADSTESLSDHRGGASNTTDAQVDSIVDPMLDLDIQELASLTTGGGDVENFERLFSKLKEMKDKAATLPHEQRKVHAEKVAKAFWMAIGGDRDEIEGLSSDEEH” reads “soluble”.

As for “SAAPSEVAAIAPGEGDGGGGGFGSWLDGRLEALGVDRAVYGAYILGILQEEEEEEKLDALQGILSAFLEEDSLLNICKEIVERWSETQNVVTKVKKEDEVQAIATLIEKQAQIVVKPRMVSEEEKQRKAALLAQYADVTDEEESLTEADEKDDSGATTMNIGSDKLLFRNTNVEDVLNARKLERDSLRDESQRKKEQDKLQRERDKLAKQERKEKEKKRTQRGERKR”, the “soluble on expression in E. coli” value is “soluble”. Turning to “SADREGSVRVVGTAHVSSDSVEEVERVIDDEHPDTVAVELDEGRFRQMQGDAPDDLDATDLLKGSMAFQFLAYWLLSYAQRRLGEKFGIEPGADMQAAVDAANTAGADVALVDRDIQVTIQRFWARMSLPEKLRMGGELALGVTDSLTL”, the “soluble on expression in E. coli” value is reported as “not soluble”. The result for “SANKGQQPPYLHLAELTASQFLDIWKHFDADGNGYIEGKELDNFFSQLEIARRGAGVDPSNAAFKGRMTEFMQKFDKNKDGRIEMSELAQILPTEENFLLCFRQFVGSSTEFMAAWRKYDTDRSGFIEANELKGFLSDLLKKANRHYDDQKLQEYTQTILKMFDLNGDGKLGLSEMARLLPVQENFLLKFQGVRLSAEQFNAIFTYYDKDGNGYIDEQELDALLKDLYEKNNKEVDSKSLTGYKQSIMALSDGGKLYRSELEIVLCRDPML” reads “soluble”; that for “SARLPKLAVFDLDYTLWPFWVDTHVDPPFHKSSDGTVRDRRGQDVRLYPEVPEVLKRLQSLGVPGAAASRTSEIEGANQLLELFDLFRCYLHSHPEWNESSNSKSRVRDICEGPNWAFEVQP”, “soluble”; that for “SASTGSQASDIDEIFGFFNDGEPPTKKPRKLLPSLKTKKPRELVLVIGTGISAAVAPQVPALKSWKGLIQALLDAAIDFDLLEDEESKKFQKCLHEDKNLVHVAHDLIQKLSPRTSNVRSTFFKDCLYEVFDDLESKMEDSGKQLLQSVLHLMENGALVLTTNFDNLLELYAADQGKQLESLDLTDEKKVLEWAQEKRKLSVLHIHGVYTNPSGIVLHPAGYQNVLRNTEVMREIQKLYENKSFLFLGCGWTVDDTTFQALFLEAVKHKSDLEHFMLVRRGDVDEFKKLRENMLDKGIKVISYGDDYADLPEYFKRLTCEISTRGTSAGMVREGQLNGSSAAHSEIRGCST”, “soluble”. The result for “SDEDGLPLMGSGIDLTKVPAIQQKRTVAFLNQFVVHTVQFLNRFSAVCEEKLADLSLRIQQIETTLNILDAKLSSIPGLEDVTVEVSPLNVTAVTNGSHSETTSEQTQQNSTQDSGAQESEAPSENVLTVAKDPRYARYRKMVQVGVPVMAIRDKMISEGLDPELLEKPDAPVPNGESKRAVEESSDSDSSFSD” reads “soluble”; that for “SDEEKKRRAATARRQHLKSAMLQLAVTEIEKEAAAKEVEKQNYLAEHSPPLSLPGSMQELQELSKKLHAKIDSVDEERYDTEVKLQKTNKELEDLSQKLFDLRGKFKRPPLRRVRMSADAMLRALLGSKHKVNMDLR”, “soluble”. Next, “SDPRRNFQPGGYDSRNTFTSGSFGPPDFGESDEAELVSVSWNQDYSCFAAGTSHGFRIYNCEPFKETFRRELKDGGFKIVEMLFRSNILALVGGGPNSQYPSNKVLIWDDHQGRCISEFTFRSEIRAVKLRRDRIVVVLEHKIYVYNFMDLRLLHQIENMANPRGLCCLSHHMNTSVLACPGIRRGEVRVEHFGLNMVQIINAHDSNIACMTLTLDGLLLATASTKGTLIRIFNTMDGTRLQEVRRGVDRADIYSIALSPNVQWLAVSSDKGTVHIFSLRVRVIGEDAYSTEHETSSNSLQPLVSPASGANPGSSLSFLRGVLPKYFSSEWSFSQFHVPEVTQYFAAFGAQNTIAIIGLDGSFYRCNFDPVNGGEMTQLEHFHFLKQDSPR”: “soluble”.

For “SDQGLIFTNHHCGYGAIQSQSTVDHDYLRDGFVSRTMGEELPIPGLSVKYLRKIVKVTDKVEGQLKGITDEMERLRKAQEVCQELAKKENADENQLCIVEPFYSNNEYFLIVYDVFKDVRMVFAPPSSVGKFGGDTDNWMWPRHTGDFSVFRVYAGADNRPAEYSKDNKPYKPVYFAAVSMQGYKADDYAMTIGFPGSTDRYLTSWGVEDRIENENNPRIEVRGIKQGIWKEAMSADQATRIKYASKYAQSANYWKNSIGMNRGLARLDVIGRKRAEERAFADWIRKNGKSAVYGDVLSSLEKAYKEGAKANREMTYLSETLFGGTEVVRFAQFANALATNPDAHAGILKSLDDKYKDYLPSLDRKVLPAMLDIVRRRIPADKLPDIFKNVIDKKFKGDTKKYADFVFDKSVVPYSDKFHAMLKSMDKEKFAKAIEKDPAVELSKSVIAAARAIQADAMANAYAIEKGKRLFFAGLREMYPGRALPSDANFTMRMSYGSIKGYEPQDGAWYNYHTTGKGVLEKQDPKSDEFAVQENILDLFRTKNYGRYAENGQLHIAFLSNNDITGGNSGSPVFDKNGRLIGLAFDGNWEAMSGDIEFEPDLQRTISVDIRYVLFMIDKWGQCPRLIQELKLI”, the “soluble on expression in E. coli” value is “not soluble”. With “SDVLASYSIFQELQLVHDTGYFSALPSLEETWQQTCLELERYLQTEPRRISETFGEDLDCFLHASPPPCIEESFRRLDPLLLPVEAAICEKSSAVDILLSRDKLLSETCLSLQPASSSLDSYTAVNQAQLNAVTSLTPPSSPELSRHLVKTSQTLSAVDGTVTLKLVAKKAALSSVKVRSLISAHGRDVSGVLHEAMSSRGTTGNTQVQSPSNATTATGVFPGLTILPST”, the “soluble on expression in E. coli” value is on record as “soluble”. As for “SEDGGWNTIESDPAVFTQLLEDLGVKDVKVEEVLQLDAAFLRSLEPVHGLIFLFKWLPDQGSEQELSFSQDVDLFFANQVIQNACGTQALLSVVFNAKDLELGSELAEFKEFTKDFDPQTRGLALSNSETIRSAHNSLSGLQHFSFEFDEKEKSDSFHFISYVPFQGRIYELDGLKKGPICRGSYTAERHWTDVAISEIEKRIERYGEGEIRFNLLAVVRDPLKIWQQELLSYQTALESCSLEVERMSISMQMKEIQTRMEDEKKRRESIRRESNRRRHNMLPFIFHLIKWLHENSDLSFT”, the “soluble on expression in E. coli” value is given as “soluble”. Turning to “SEIESDPNDGHHHHHRRLHLDLSVDERSPRHGISELLQKLRPEWKPDDIQIKVFTEGITNQLMGCYVGSMTRDPVLLVRVYGQMTELFMDREKEMEMFRVLHKHGCGPQLYCSFNNGICYEFVRGVVLDDTLLHQPSVYRLIATEMGKIHSIKSGDSGARSAVTPVLWSRLSQFLNLLQSADDPEQQRSSADGETPSLEIIMREMEELKSHLARINSPVVLCHNDLLTKNVIYNQEEGAVKFIDYEYADFNYQAYDIGNHFNEFAGIDNVDSSLYPSDELQFDWLSAYLESFKRCSTGDSAVTQTEVQELYEQVCQFSLVAHLFWCLWALLQAKHSTIDFDFQRYARARFNYYFEKKREFCGLTPP”, the “soluble on expression in E. coli” value was “soluble”. Regarding “SELRPSGDSGSSDVDAEISDGFSPLDTSHRDVADEGSLLRRAEMYQDYMKQVPIPTNRGSLIPFTSWVGLSISMKQLYGQPLHYLTNVLLQRWDQSRFGTDSEEQRLDSIIHPTKAEATIWLVEEIHRLTPSHLHMALLWRSDPMYHSFIDPIFPEK”, the “soluble on expression in E. coli” value is on record as “soluble”. Next, “SEQKSTASGTCGGKPAERGPLAGHMPSSRPHRVDFCWVPGSDPGTFDGSPWLLDRFLAQLGDYMSFHFEHYQDNISRVCEILRRLTGRAQAWAAPYLDGDLPLPDDYELFCQDLKEVVQDPNSFAEYHAVVTCPLPLASSQLPVAPQLPVVRQYLARFLEGLALDMGTAPRSLPAAMATPAVSGSNSVSRSALFEQQLTKESTPGPKEPPVLPSSTCSSKPGPVEPASSQPEEAAPTPVPRLSESANPPAQRPDPAHPGGPKPQKTEEEVLETEGDQEVSLGTPQEVVEAPETPGEPPLSPGF”: “soluble”; “SEQTEVLKPRTLADLIRILHQLFAGDEVNVEEVQAIMEAYESDPTEWAMYAKFDQYRYTRNLVDQGNGKFNLMILCWGEGHGSSIHDHTNSHCFLKMLQGNLKETLFAWPDKKSNEMVKKSERVLRENQCAYINDSVGLHRVENISHTEPAVSLHLYSPPFDTCHAFDQRTGHKNKVTMTFHSKFGIRTPNATSGSLENN”: “soluble”.

Turning to “SESSESKASSGLPIDLRGKRAFIAGIADDNGYGWAVAKSLAAAGAEILVGTWVPALNIFETSLRRGKFDQSRVLPDGSLMEIKKVYPLDAVFDNPEDVPEDVKANKRYAGSSNWTVQEAAECVRQDFGSIDILVHSLANGPEVSKPLLETSRKGYLAAISASSYSFVSLLSHFLPIMNPGGASISLTYIASERIIPGYGGGMSSAKAALESDTRVLAFEAGRKQNIRVNTISAGPLGSRAAKAIGFIDTMIEYSYNNAPIQKTLTADEVGNAAAFLVSPLASAITGATIYVDNGLNSMGVALDSPVFKDLDK”, the “soluble on expression in E. coli” value is listed as “soluble”. The result for “SGEIKVSPDYNWFRGTVPLKKIIVDDDDSKIWSLYDAGPRSIRCPLIFLPPVSGTADVFFRQILALTGWGYRVIALQYPVYWDHLEFCDGFRKLLDHLQLDKVHLFGASLGGFLAQKFAEYTHKSPRVHSLILCNSFSDTSIFNQTWTANSFWLMPAFMLKKIVLGNFSSGPVDPMMADAIDFMVDRLESLGQSELASRLTLNCQNSYVEPHKIRDIPVTIMDVFDQSALSTEAKEEMYKLYPNARRAHLKTGGNFPYLCRSAEVNLYVQIHLLQFHGTKYAAIDPSMVSAEELEVQKGSLGISQEEQ” reads “soluble”.
